Source: publication PMC9482650, “Quantitative fragmentomics allow affinity mapping of interactomes” (Nature Communications, 2022)

T1: DFNB31_1, Q9P202
T1 sequence (Q9P202 135-233, limits assumed, looked up): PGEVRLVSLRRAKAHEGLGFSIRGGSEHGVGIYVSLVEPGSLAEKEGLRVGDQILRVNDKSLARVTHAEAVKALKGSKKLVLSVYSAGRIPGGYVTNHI

T2: DFNB31_2, Q9P202
T2 sequence (Q9P202 274-371, limits assumed, looked up): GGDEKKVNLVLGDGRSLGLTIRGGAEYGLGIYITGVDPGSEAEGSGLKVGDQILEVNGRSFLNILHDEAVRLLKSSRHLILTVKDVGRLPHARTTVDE

T3: FRMPD1, Q5SYB0
T3 sequence (Q5SYB0 52-145, limits assumed, looked up): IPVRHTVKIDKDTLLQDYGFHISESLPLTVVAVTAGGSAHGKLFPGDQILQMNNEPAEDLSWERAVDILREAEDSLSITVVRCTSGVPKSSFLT

T4: GRIP1_2, Q9Y3R0
T4 sequence (Q9Y3R0 145-248, limits assumed, looked up): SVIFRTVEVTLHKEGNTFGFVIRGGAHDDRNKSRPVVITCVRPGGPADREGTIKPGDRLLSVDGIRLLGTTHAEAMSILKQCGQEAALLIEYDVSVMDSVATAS

T5: LRRC7, Q96NW7
T5 sequence (Q96NW7 1440-1537, limits assumed, looked up): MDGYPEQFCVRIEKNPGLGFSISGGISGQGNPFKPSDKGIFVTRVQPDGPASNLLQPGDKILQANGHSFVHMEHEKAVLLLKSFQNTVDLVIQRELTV

T6: MPP2, Q14168
T6 sequence (Q14168 180-250, limits assumed, looked up): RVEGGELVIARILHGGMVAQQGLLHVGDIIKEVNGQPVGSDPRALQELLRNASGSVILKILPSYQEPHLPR

T7: PCLO, Q9Y6V0
T7 sequence (Q9Y6V0 4491-4600, limits assumed, looked up): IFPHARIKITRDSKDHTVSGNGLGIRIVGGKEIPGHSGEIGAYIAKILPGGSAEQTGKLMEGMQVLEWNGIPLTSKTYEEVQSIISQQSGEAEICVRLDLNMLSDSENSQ

T8: PDZD2_2, O15018
T8 sequence (O15018 329-429, limits assumed, looked up): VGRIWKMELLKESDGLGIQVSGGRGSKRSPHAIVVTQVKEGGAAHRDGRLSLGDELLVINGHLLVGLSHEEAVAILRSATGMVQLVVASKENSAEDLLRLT

T9: PDZRN3_1, Q9UPQ7
T9 sequence (Q9UPQ7 244-349, limits assumed, looked up): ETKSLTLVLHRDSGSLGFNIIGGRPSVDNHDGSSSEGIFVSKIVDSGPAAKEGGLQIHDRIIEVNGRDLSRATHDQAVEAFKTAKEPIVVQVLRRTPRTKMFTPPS

T10: PTPN13_1, Q12923
T10 sequence (Q12923 1088-1188, limits assumed, looked up): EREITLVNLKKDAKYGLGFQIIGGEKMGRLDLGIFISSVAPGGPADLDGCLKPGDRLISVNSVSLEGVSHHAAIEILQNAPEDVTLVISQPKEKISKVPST

T11: SNTG1, Q9NSN8
T11 sequence (Q9NSN8 52-150, limits assumed, looked up): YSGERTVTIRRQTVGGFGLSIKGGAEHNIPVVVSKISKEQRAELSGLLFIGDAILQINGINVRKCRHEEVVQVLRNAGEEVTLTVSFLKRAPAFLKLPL

T12: SYNJ2BP, P57105
T12 sequence (P57105 8-110, limits assumed, looked up): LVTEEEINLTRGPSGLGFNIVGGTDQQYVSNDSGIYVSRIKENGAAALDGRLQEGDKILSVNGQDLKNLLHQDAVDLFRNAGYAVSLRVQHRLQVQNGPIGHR

T13: TIAM2, Q8IVF5
T13 sequence (Q8IVF5 885-986, limits assumed, looked up): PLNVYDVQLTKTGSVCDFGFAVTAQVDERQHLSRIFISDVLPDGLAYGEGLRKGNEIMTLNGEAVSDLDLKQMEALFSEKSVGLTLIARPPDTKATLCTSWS

T14: TX1BP3, O14907
T14 sequence (O14907 10-122, limits assumed, looked up): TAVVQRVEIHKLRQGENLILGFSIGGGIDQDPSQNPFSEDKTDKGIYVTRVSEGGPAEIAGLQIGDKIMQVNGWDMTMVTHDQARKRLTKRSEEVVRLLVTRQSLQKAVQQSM


Target: CASK, O14936
Assay: holdup assay
Design: key: below the threshold = too weak to quantify, mostly under pKd 3.1 to 4
Settings: plain residues with an end cap or a label only (N-terminal biotin on a linker: ado-ado)

CASK, O14936, sequence (O14936 487-570): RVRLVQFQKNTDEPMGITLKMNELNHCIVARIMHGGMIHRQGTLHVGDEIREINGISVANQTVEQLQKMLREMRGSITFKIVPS

Binder | pKd
NRVDSKETEC [ADAM17, P78536] | below the threshold
VRPGVKESLV [SCN4A, P35499] | below the threshold
SVISRREWYV [NECTIN3, Q9NQS3] | 3.75

Target: T1, DFNB31_1, Q9P202
Assay: holdup assay
Design: key: below the threshold = too weak to quantify, mostly under pKd 3.1 to 4
Settings: plain residues with an end cap or a label only (N-terminal biotin on a linker: ado-ado)

Binder | pKd
NRVDSKETEC [ADAM17, P78536] | 3.72
VRPGVKESLV [SCN4A, P35499] | 3.73
SVISRREWYV [NECTIN3, Q9NQS3] | below the threshold

Target: T2, DFNB31_2, Q9P202
Assay: holdup assay
Design: key: below the threshold = too weak to quantify, mostly under pKd 3.1 to 4
Settings: plain residues with an end cap or a label only (N-terminal biotin on a linker: ado-ado)

Binder | pKd
NRVDSKETEC [ADAM17, P78536] | below the threshold
VRPGVKESLV [SCN4A, P35499] | 3.95
SVISRREWYV [NECTIN3, Q9NQS3] | below the threshold

Target: DLG5_1, Q8TDM6
Assay: holdup assay
Design: key: below the threshold = too weak to quantify, mostly under pKd 3.1 to 4
Settings: plain residues with an end cap or a label only (N-terminal biotin on a linker: ado-ado)

DLG5_1, Q8TDM6, sequence (Q8TDM6 617-713): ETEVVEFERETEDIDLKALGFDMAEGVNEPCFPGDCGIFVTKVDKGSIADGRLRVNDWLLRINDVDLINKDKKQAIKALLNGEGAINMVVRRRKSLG

Binder | pKd
NRVDSKETEC [ADAM17, P78536] | below the threshold
VRPGVKESLV [SCN4A, P35499] | below the threshold
SVISRREWYV [NECTIN3, Q9NQS3] | below the threshold

Target: T3, FRMPD1, Q5SYB0
Assay: holdup assay
Design: key: below the threshold = too weak to quantify, mostly under pKd 3.1 to 4
Settings: plain residues with an end cap or a label only (N-terminal biotin on a linker: ado-ado)

Binder | pKd
NRVDSKETEC [ADAM17, P78536] | below the threshold
VRPGVKESLV [SCN4A, P35499] | below the threshold
SVISRREWYV [NECTIN3, Q9NQS3] | below the threshold

Target: FRMPD2_3, Q68DX3
Assay: holdup assay
Design: key: below the threshold = too weak to quantify, mostly under pKd 3.1 to 4
Settings: plain residues with an end cap or a label only (N-terminal biotin on a linker: ado-ado)

FRMPD2_3, Q68DX3, sequence (Q68DX3 1073-1166): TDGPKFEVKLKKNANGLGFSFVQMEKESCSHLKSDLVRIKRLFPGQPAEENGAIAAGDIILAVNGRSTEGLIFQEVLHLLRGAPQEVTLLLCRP

Binder | pKd
NRVDSKETEC [ADAM17, P78536] | below the threshold
VRPGVKESLV [SCN4A, P35499] | below the threshold
SVISRREWYV [NECTIN3, Q9NQS3] | 4.44

Target: FRMPD4, Q14CM0
Assay: holdup assay
Design: key: below the threshold = too weak to quantify, mostly under pKd 3.1 to 4
Settings: plain residues with an end cap or a label only (N-terminal biotin on a linker: ado-ado)

FRMPD4, Q14CM0, sequence (Q14CM0 67-160): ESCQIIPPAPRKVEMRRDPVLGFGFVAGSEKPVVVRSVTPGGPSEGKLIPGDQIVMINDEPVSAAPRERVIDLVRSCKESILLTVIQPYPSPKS

Binder | pKd
NRVDSKETEC [ADAM17, P78536] | below the threshold
VRPGVKESLV [SCN4A, P35499] | below the threshold
SVISRREWYV [NECTIN3, Q9NQS3] | 3.97

Target: GIPC2, Q8TF65
Assay: holdup assay
Design: key: below the threshold = too weak to quantify, mostly under pKd 3.1 to 4
Settings: plain residues with an end cap or a label only (N-terminal biotin on a linker: ado-ado)

GIPC2, Q8TF65, sequence (Q8TF65 112-203): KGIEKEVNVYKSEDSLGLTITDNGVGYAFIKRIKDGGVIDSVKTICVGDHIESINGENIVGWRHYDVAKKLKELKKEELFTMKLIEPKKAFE

Binder | pKd
NRVDSKETEC [ADAM17, P78536] | 4.27
VRPGVKESLV [SCN4A, P35499] | below the threshold
SVISRREWYV [NECTIN3, Q9NQS3] | below the threshold

Target: T4, GRIP1_2, Q9Y3R0
Assay: holdup assay
Design: key: below the threshold = too weak to quantify, mostly under pKd 3.1 to 4
Settings: plain residues with an end cap or a label only (N-terminal biotin on a linker: ado-ado)

Binder | pKd
NRVDSKETEC [ADAM17, P78536] | 3.59
VRPGVKESLV [SCN4A, P35499] | below the threshold
SVISRREWYV [NECTIN3, Q9NQS3] | below the threshold

Target: GRIP2_6, Q9C0E4
Assay: holdup assay
Design: key: below the threshold = too weak to quantify, mostly under pKd 3.1 to 4
Settings: plain residues with an end cap or a label only (N-terminal biotin on a linker: ado-ado)

GRIP2_6, Q9C0E4, sequence (Q9C0E4 648-740): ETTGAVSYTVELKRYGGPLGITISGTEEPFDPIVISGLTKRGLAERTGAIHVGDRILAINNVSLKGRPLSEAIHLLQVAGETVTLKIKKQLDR

Binder | pKd
NRVDSKETEC [ADAM17, P78536] | below the threshold
VRPGVKESLV [SCN4A, P35499] | below the threshold
SVISRREWYV [NECTIN3, Q9NQS3] | 4.81

Target: Inadl_3, Q8NI35
Assay: holdup assay
Design: key: below the threshold = too weak to quantify, mostly under pKd 3.1 to 4
Settings: plain residues with an end cap or a label only (N-terminal biotin on a linker: ado-ado)

Inadl_3, Q8NI35, sequence (Q8NI35 359-469): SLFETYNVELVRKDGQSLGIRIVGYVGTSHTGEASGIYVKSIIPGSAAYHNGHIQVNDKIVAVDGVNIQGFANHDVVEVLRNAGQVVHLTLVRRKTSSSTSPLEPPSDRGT

Binder | pKd
NRVDSKETEC [ADAM17, P78536] | below the threshold
VRPGVKESLV [SCN4A, P35499] | below the threshold
SVISRREWYV [NECTIN3, Q9NQS3] | 5.03

Target: T5, LRRC7, Q96NW7
Assay: holdup assay
Design: key: below the threshold = too weak to quantify, mostly under pKd 3.1 to 4
Settings: plain residues with an end cap or a label only (N-terminal biotin on a linker: ado-ado)

Binder | pKd
NRVDSKETEC [ADAM17, P78536] | below the threshold
VRPGVKESLV [SCN4A, P35499] | 4.02
SVISRREWYV [NECTIN3, Q9NQS3] | 3.52

Target: MAGI1_2, Q96QZ7
Assay: holdup assay
Design: key: below the threshold = too weak to quantify, mostly under pKd 3.1 to 4
Settings: plain residues with an end cap or a label only (N-terminal biotin on a linker: ado-ado)

MAGI1_2, Q96QZ7, sequence (Q96QZ7 456-580): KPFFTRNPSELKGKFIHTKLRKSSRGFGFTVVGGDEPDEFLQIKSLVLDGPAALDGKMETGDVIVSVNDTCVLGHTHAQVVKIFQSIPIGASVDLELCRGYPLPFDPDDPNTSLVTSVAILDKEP

Binder | pKd
NRVDSKETEC [ADAM17, P78536] | below the threshold
VRPGVKESLV [SCN4A, P35499] | 4.6
SVISRREWYV [NECTIN3, Q9NQS3] | 4.78

Target: T6, MPP2, Q14168
Assay: holdup assay
Design: key: below the threshold = too weak to quantify, mostly under pKd 3.1 to 4
Settings: plain residues with an end cap or a label only (N-terminal biotin on a linker: ado-ado)

Binder | pKd
NRVDSKETEC [ADAM17, P78536] | below the threshold
VRPGVKESLV [SCN4A, P35499] | below the threshold
SVISRREWYV [NECTIN3, Q9NQS3] | 4.57

Target: T7, PCLO, Q9Y6V0
Assay: holdup assay
Design: key: below the threshold = too weak to quantify, mostly under pKd 3.1 to 4
Settings: plain residues with an end cap or a label only (N-terminal biotin on a linker: ado-ado)

Binder | pKd
NRVDSKETEC [ADAM17, P78536] | below the threshold
VRPGVKESLV [SCN4A, P35499] | below the threshold
SVISRREWYV [NECTIN3, Q9NQS3] | below the threshold

Target: T8, PDZD2_2, O15018
Assay: holdup assay
Design: key: below the threshold = too weak to quantify, mostly under pKd 3.1 to 4
Settings: plain residues with an end cap or a label only (N-terminal biotin on a linker: ado-ado)

Binder | pKd
NRVDSKETEC [ADAM17, P78536] | below the threshold
VRPGVKESLV [SCN4A, P35499] | 5.17
SVISRREWYV [NECTIN3, Q9NQS3] | 5.08

Target: T9, PDZRN3_1, Q9UPQ7
Assay: holdup assay
Design: key: below the threshold = too weak to quantify, mostly under pKd 3.1 to 4
Settings: plain residues with an end cap or a label only (N-terminal biotin on a linker: ado-ado)

Binder | pKd
NRVDSKETEC [ADAM17, P78536] | 3.57
VRPGVKESLV [SCN4A, P35499] | 4.38
SVISRREWYV [NECTIN3, Q9NQS3] | below the threshold

Target: T10, PTPN13_1, Q12923
Assay: holdup assay
Design: key: below the threshold = too weak to quantify, mostly under pKd 3.1 to 4
Settings: plain residues with an end cap or a label only (N-terminal biotin on a linker: ado-ado)

Binder | pKd
NRVDSKETEC [ADAM17, P78536] | below the threshold
VRPGVKESLV [SCN4A, P35499] | below the threshold
SVISRREWYV [NECTIN3, Q9NQS3] | below the threshold

Target: T11, SNTG1, Q9NSN8
Assay: holdup assay
Design: key: below the threshold = too weak to quantify, mostly under pKd 3.1 to 4
Settings: plain residues with an end cap or a label only (N-terminal biotin on a linker: ado-ado)

Binder | pKd
NRVDSKETEC [ADAM17, P78536] | 3.63
VRPGVKESLV [SCN4A, P35499] | 4.85
SVISRREWYV [NECTIN3, Q9NQS3] | 3.79

Target: SNX27, Q96L92
Assay: holdup assay
Design: key: below the threshold = too weak to quantify, mostly under pKd 3.1 to 4
Settings: plain residues with an end cap or a label only (N-terminal biotin on a linker: ado-ado)

Binder | pKd
NRVDSKETEC [ADAM17, P78536] | 5.06
VRPGVKESLV [SCN4A, P35499] | 5.28
SVISRREWYV [NECTIN3, Q9NQS3] | below the threshold

Target: T12, SYNJ2BP, P57105
Assay: holdup assay
Design: key: below the threshold = too weak to quantify, mostly under pKd 3.1 to 4
Settings: plain residues with an end cap or a label only (N-terminal biotin on a linker: ado-ado)

Binder | pKd
NRVDSKETEC [ADAM17, P78536] | 4.28
VRPGVKESLV [SCN4A, P35499] | 5.09
SVISRREWYV [NECTIN3, Q9NQS3] | 3.55

Target: T13, TIAM2, Q8IVF5
Assay: holdup assay
Design: key: below the threshold = too weak to quantify, mostly under pKd 3.1 to 4
Settings: plain residues with an end cap or a label only (N-terminal biotin on a linker: ado-ado)

Binder | pKd
NRVDSKETEC [ADAM17, P78536] | 3.92
VRPGVKESLV [SCN4A, P35499] | below the threshold
SVISRREWYV [NECTIN3, Q9NQS3] | 5.1

Target: T14, TX1BP3, O14907
Assay: holdup assay
Design: key: below the threshold = too weak to quantify, mostly under pKd 3.1 to 4
Settings: plain residues with an end cap or a label only (N-terminal biotin on a linker: ado-ado)

Binder | pKd
NRVDSKETEC [ADAM17, P78536] | below the threshold
VRPGVKESLV [SCN4A, P35499] | 4.73
SVISRREWYV [NECTIN3, Q9NQS3] | below the threshold
